How the values were obtained:
[1] = target: cytochrome c-dependent nitric oxide reductase (cNOR) from Paracoccus denitrificans, NorB and NorC, unlabelled (Paracoccus denitrificans) (UniProt Q51662)
[2] = target: cytochrome c-dependent nitric oxide reductase (cNOR) from Paracoccus denitrificans, NorB and NorC, unlabelled (Paracoccus denitrificans) (UniProt Q51662); remark: listed apart in the source
[3] = target: cytochrome c-dependent nitric oxide reductase (cNOR) from Paracoccus denitrificans, NorB and NorC, unlabelled (Paracoccus denitrificans) (UniProt Q51662); remark: listed apart in the source
[4] = target: cytochrome c-dependent nitric oxide reductase (cNOR) from Paracoccus denitrificans, NorB and NorC, unlabelled (Paracoccus denitrificans) (UniProt Q51662); remark: listed apart in the source

Sequence of horse heart cytochrome c (P00004 whole entry): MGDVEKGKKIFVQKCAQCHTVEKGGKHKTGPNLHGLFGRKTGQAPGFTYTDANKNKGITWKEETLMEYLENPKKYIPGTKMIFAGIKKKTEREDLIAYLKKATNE
Sequence of cytochrome c-dependent nitric oxide reductase (cNOR) from Paracoccus denitrificans, NorB and NorC, unlabelled (Paracoccus denitrificans) (Q51662 whole entry, looked up): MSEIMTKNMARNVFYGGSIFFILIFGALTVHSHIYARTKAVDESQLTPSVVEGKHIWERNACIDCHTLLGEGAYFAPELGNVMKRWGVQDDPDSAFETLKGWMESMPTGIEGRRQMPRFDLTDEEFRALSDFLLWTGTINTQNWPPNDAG
Sequence of cytochrome cd1 nitrite reductase (cd1NiR) from Paracoccus pantotrophus, labelled with Abberior STAR 635 (P72181 30-596): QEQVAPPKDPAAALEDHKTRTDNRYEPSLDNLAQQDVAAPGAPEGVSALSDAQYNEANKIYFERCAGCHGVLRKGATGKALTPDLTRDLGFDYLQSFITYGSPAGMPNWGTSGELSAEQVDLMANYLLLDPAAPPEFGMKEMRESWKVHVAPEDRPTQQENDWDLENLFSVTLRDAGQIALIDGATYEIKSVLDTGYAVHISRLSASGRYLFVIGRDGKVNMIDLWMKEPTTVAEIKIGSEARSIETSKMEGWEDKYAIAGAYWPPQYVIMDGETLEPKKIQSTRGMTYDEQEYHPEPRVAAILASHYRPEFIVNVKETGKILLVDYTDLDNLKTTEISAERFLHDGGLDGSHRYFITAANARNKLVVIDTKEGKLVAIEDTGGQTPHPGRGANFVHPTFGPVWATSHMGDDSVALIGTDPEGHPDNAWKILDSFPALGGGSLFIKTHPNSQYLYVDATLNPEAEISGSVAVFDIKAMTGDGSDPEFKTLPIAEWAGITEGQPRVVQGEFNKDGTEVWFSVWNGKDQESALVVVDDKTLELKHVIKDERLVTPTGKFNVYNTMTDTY

Substance: cytochrome cd1 nitrite reductase (cd1NiR) from Paracoccus pantotrophus, labelled with Abberior STAR 635 (from UniProt P72181 30-596) (enzyme)
- inhibition of the maximum NO-reduction activity (kmax at ~5 µM NO) of 40 nM detergent-solubilized cNOR, cd1NiR 0-200 nM; the inhibition is released at higher cd1NiR [1]: 50%
- relative kmax (kcat of the fit) of NO reduction by liposome-reconstituted cNOR in the presence of ~30 nM cd1NiR, cyt. c titration; control without cd1NiR = 100% [2]: 46%

Substance: horse heart cytochrome c (from UniProt P00004 1-105) (natural protein)
- Km for cyt. c of NO reduction by cNOR in detergent (0.05% DDM) [3]: 0.8 µM
- Km for cyt. c of NO reduction by liposome-reconstituted cNOR [3]: 0.8 µM
- Km for cyt. c of NO reduction by liposome-reconstituted cNOR in the presence of ~30 nM cd1NiR (unchanged against the control) [4]: 0.15 µM
- Km for cyt. c of NO reduction by liposome-reconstituted cNOR, side-by-side control without cd1NiR [4]: 0.2 µM
